B1: GAS2-like protein 1, residues 209 to 276; numbered along this chain, Q99501 (parent)
chain: DELVREILGRCTCPDQFPMIKVSEGKYRVGDSSLLIFVRVLRSHVMVRVGGGWDTLEHYLDKHDPCRC

± gives the uncertainty stated by the source.

The variants in the data set derive from B1. As to the kind of experiment: abundance fitness (aPCA) (normalised: wild type 0, dead -1); higher = more abundant; growth selection in yeast, the domain comes from the species named. Conditions: Homo sapiens.
On to DELVREILGRCCCPDQFPMIKVSEGKYRVGDSSLLIFVRVLRSHVMVRVGGGWDTLEHYLDKHDPCRC [T12C], for which the abundance fitness is -0.247 ± 0.047.

With DELVREILGRCHCPDQFPMIKVSEGKYRVGDSSLLIFVRVLRSHVMVRVGGGWDTLEHYLDKHDPCRC [T12H], the abundance fitness was -0.542 ± 0.13. With DELVREILGRCPCPDQFPMIKVSEGKYRVGDSSLLIFVRVLRSHVMVRVGGGWDTLEHYLDKHDPCRC [T12P], the abundance fitness was -0.749 ± 0.14. Take DELVREILGRCMCPDQFPMIKVSEGKYRVGDSSLLIFVRVLRSHVMVRVGGGWDTLEHYLDKHDPCRC [T12M]: the abundance fitness was -0.419 ± 0.098. The value for DELVREILGRCDCPDQFPMIKVSEGKYRVGDSSLLIFVRVLRSHVMVRVGGGWDTLEHYLDKHDPCRC [T12D] was -0.797 ± 0.15. The value for DELVREILGRCLCPDQFPMIKVSEGKYRVGDSSLLIFVRVLRSHVMVRVGGGWDTLEHYLDKHDPCRC [T12L] was -0.664 ± 0.058.

In the case of DELVREILGRCQCPDQFPMIKVSEGKYRVGDSSLLIFVRVLRSHVMVRVGGGWDTLEHYLDKHDPCRC [T12Q], the abundance fitness is -0.193 ± 0.077.

On to DELVREILGRCECPDQFPMIKVSEGKYRVGDSSLLIFVRVLRSHVMVRVGGGWDTLEHYLDKHDPCRC [T12E], for which the abundance fitness was -0.381 ± 0.063. With DELVREILGRCKCPDQFPMIKVSEGKYRVGDSSLLIFVRVLRSHVMVRVGGGWDTLEHYLDKHDPCRC [T12K], the abundance fitness was -0.169 ± 0.1. The value for DELVREILGRCWCPDQFPMIKVSEGKYRVGDSSLLIFVRVLRSHVMVRVGGGWDTLEHYLDKHDPCRC [T12W] was -0.831 ± 0.2. The same measure for DELVREILGRCVCPDQFPMIKVSEGKYRVGDSSLLIFVRVLRSHVMVRVGGGWDTLEHYLDKHDPCRC [T12V]: -0.267 ± 0.041; for DELVREILGRCYCPDQFPMIKVSEGKYRVGDSSLLIFVRVLRSHVMVRVGGGWDTLEHYLDKHDPCRC [T12Y]: -0.8 ± 0.19. Turning to DELVREILGRCNCPDQFPMIKVSEGKYRVGDSSLLIFVRVLRSHVMVRVGGGWDTLEHYLDKHDPCRC [T12N], the abundance fitness was -0.355 ± 0.11. The same measure for DELVREILGRCTCKDQFPMIKVSEGKYRVGDSSLLIFVRVLRSHVMVRVGGGWDTLEHYLDKHDPCRC [P14K]: 0.016 ± 0.056.

As to DELVREILGRCTCFDQFPMIKVSEGKYRVGDSSLLIFVRVLRSHVMVRVGGGWDTLEHYLDKHDPCRC [P14F], the abundance fitness is -0.509 ± 0.17. As to DELVREILGRCTCSDQFPMIKVSEGKYRVGDSSLLIFVRVLRSHVMVRVGGGWDTLEHYLDKHDPCRC [P14S], the abundance fitness was -0.162 ± 0.049. The same measure for DELVREILGRCTCWDQFPMIKVSEGKYRVGDSSLLIFVRVLRSHVMVRVGGGWDTLEHYLDKHDPCRC [P14W]: -0.816 ± 0.12; for DELVREILGRCTCIDQFPMIKVSEGKYRVGDSSLLIFVRVLRSHVMVRVGGGWDTLEHYLDKHDPCRC [P14I]: -0.336 ± 0.073. The value for DELVREILGRCTCGDQFPMIKVSEGKYRVGDSSLLIFVRVLRSHVMVRVGGGWDTLEHYLDKHDPCRC [P14G] was -0.502 ± 0.079. The same measure for DELVREILGRCTCTDQFPMIKVSEGKYRVGDSSLLIFVRVLRSHVMVRVGGGWDTLEHYLDKHDPCRC [P14T]: -0.136 ± 0.053; for DELVREILGRCTCCDQFPMIKVSEGKYRVGDSSLLIFVRVLRSHVMVRVGGGWDTLEHYLDKHDPCRC [P14C]: -0.439 ± 0.11; for DELVREILGRCTCNDQFPMIKVSEGKYRVGDSSLLIFVRVLRSHVMVRVGGGWDTLEHYLDKHDPCRC [P14N]: -0.424 ± 0.12.

For the variant DELVREILGRCTCVDQFPMIKVSEGKYRVGDSSLLIFVRVLRSHVMVRVGGGWDTLEHYLDKHDPCRC [P14V], the abundance fitness is -0.213 ± 0.05. For the variant DELVREILGRCTCADQFPMIKVSEGKYRVGDSSLLIFVRVLRSHVMVRVGGGWDTLEHYLDKHDPCRC [P14A], the abundance fitness was -0.142 ± 0.063. DELVREILGRCTCQDQFPMIKVSEGKYRVGDSSLLIFVRVLRSHVMVRVGGGWDTLEHYLDKHDPCRC [P14Q]: the abundance fitness was -0.161 ± 0.074. The same measure for DELVREILGRCTCMDQFPMIKVSEGKYRVGDSSLLIFVRVLRSHVMVRVGGGWDTLEHYLDKHDPCRC [P14M]: -0.457 ± 0.076. The same measure for DELVREILGRCTCRDQFPMIKVSEGKYRVGDSSLLIFVRVLRSHVMVRVGGGWDTLEHYLDKHDPCRC [P14R]: -0.147 ± 0.045; for DELVREILGRHTCPDQFPMIKVSEGKYRVGDSSLLIFVRVLRSHVMVRVGGGWDTLEHYLDKHDPCRC [C11H]: -0.966 ± 0.26; for DELVREILGRWTCPDQFPMIKVSEGKYRVGDSSLLIFVRVLRSHVMVRVGGGWDTLEHYLDKHDPCRC [C11W]: -1 ± 0.15. On to DELVREILGRYTCPDQFPMIKVSEGKYRVGDSSLLIFVRVLRSHVMVRVGGGWDTLEHYLDKHDPCRC [C11Y], for which the abundance fitness was -0.892 ± 0.12.

Regarding DELVREILGRMTCPDQFPMIKVSEGKYRVGDSSLLIFVRVLRSHVMVRVGGGWDTLEHYLDKHDPCRC [C11M], the abundance fitness was -0.771 ± 0.15. Take DELVREILGRRTCPDQFPMIKVSEGKYRVGDSSLLIFVRVLRSHVMVRVGGGWDTLEHYLDKHDPCRC [C11R]: the abundance fitness is -0.932 ± 0.086. As for DELVREILGRLTCPDQFPMIKVSEGKYRVGDSSLLIFVRVLRSHVMVRVGGGWDTLEHYLDKHDPCRC [C11L], the abundance fitness was -0.895 ± 0.083. For the variant DELVREILGRITCPDQFPMIKVSEGKYRVGDSSLLIFVRVLRSHVMVRVGGGWDTLEHYLDKHDPCRC [C11I], the abundance fitness is -1.08 ± 0.33. The same measure for DELVREILGRTTCPDQFPMIKVSEGKYRVGDSSLLIFVRVLRSHVMVRVGGGWDTLEHYLDKHDPCRC [C11T]: -0.882 ± 0.12. The same measure for DELVREILGRSTCPDQFPMIKVSEGKYRVGDSSLLIFVRVLRSHVMVRVGGGWDTLEHYLDKHDPCRC [C11S]: -0.961 ± 0.13. As for DELVREILGRKTCPDQFPMIKVSEGKYRVGDSSLLIFVRVLRSHVMVRVGGGWDTLEHYLDKHDPCRC [C11K], the abundance fitness is -0.949 ± 0.13.

Consider DELVREILGRVTCPDQFPMIKVSEGKYRVGDSSLLIFVRVLRSHVMVRVGGGWDTLEHYLDKHDPCRC [C11V], for which the abundance fitness is -0.752 ± 0.087. Turning to DELVREILGRPTCPDQFPMIKVSEGKYRVGDSSLLIFVRVLRSHVMVRVGGGWDTLEHYLDKHDPCRC [C11P], the abundance fitness is -1.17 ± 0.35. For DELVREILGRQTCPDQFPMIKVSEGKYRVGDSSLLIFVRVLRSHVMVRVGGGWDTLEHYLDKHDPCRC [C11Q], the abundance fitness is -0.986 ± 0.26.

The values above are taken from the Human Domainome abundance scans (Beltran et al. 2025).
